What was measured:
[1] = Aβ stable isotope labeling kinetics; format: in vivo, human; conditions: for FTR faster in cognitively normal amyloid positive group: in vivo
[2] = format: in vivo, human; conditions: 0.143 - 0.091

| Substance | FTR faster in cognitively normal amyloid positive group [1] [%] | FTR (fractional turnover rate, irreversible loss) ([1]; compartmental model, CDR-SB = 0 (n=44), mean ± SD) [pools/h] | deposition rate constant into amyloid plaques [2] [pool/h] |
| --- | --- | --- | --- |
| Aβ40: endogenous soluble amyloid-beta isoform ending at residue 40, measured in human CSF | 17 |  |  |
| Aβ42: endogenous soluble amyloid-beta isoform ending at residue 42, measured in human CSF | 57 | 0.104 ± 0.036 | 0.052 |
| Aβ38: endogenous soluble amyloid-beta isoform ending at residue 38, measured in human CSF | 22 |  |  |
